Reference: article PMC2756588

T1: Abp1, P15891
T1 sequence (P15891 535-592, looked up): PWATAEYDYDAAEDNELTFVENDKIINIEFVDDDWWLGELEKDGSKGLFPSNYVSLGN

T2: Bbc1, P47068
T2 sequence (P47068 1-78, looked up): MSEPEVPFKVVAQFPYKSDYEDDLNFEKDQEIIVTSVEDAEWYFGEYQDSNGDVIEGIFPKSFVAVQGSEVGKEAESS

T3: Boi1, P38041
T3 sequence (P38041 1-86, looked up): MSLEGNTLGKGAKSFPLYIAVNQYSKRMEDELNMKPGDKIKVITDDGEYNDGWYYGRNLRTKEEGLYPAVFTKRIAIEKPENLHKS

T4: Boi2, P39969
T4 sequence (P39969 32-116, looked up): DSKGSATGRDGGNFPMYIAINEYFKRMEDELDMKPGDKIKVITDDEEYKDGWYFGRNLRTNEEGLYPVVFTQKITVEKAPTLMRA

T5: Bud14, P27637
T5 sequence (P27637 247-328, looked up): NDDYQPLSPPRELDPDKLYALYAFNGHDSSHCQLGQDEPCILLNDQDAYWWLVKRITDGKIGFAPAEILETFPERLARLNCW

T6: Bzz1-1, P38822
T6 sequence (P38822 478-572, looked up): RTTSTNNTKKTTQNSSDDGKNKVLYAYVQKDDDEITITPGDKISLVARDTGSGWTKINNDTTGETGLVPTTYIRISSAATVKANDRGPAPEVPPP

T7: Bzz1-2, P38822
T7 sequence (P38822 568-633, looked up): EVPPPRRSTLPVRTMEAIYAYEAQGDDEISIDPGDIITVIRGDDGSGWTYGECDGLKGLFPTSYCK

T8: Cdc25, P04821
T8 sequence (P04821 50-136, looked up): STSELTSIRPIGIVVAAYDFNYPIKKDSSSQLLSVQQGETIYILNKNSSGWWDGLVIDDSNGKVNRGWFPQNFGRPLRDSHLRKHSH

T9: Cyk3, Q07533
T9 sequence (Q07533 1-83, looked up): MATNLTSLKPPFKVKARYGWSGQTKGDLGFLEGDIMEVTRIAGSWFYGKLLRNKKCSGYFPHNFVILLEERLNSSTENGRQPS

T10: Fus1, P11710
T10 sequence (P11710 432-512, looked up): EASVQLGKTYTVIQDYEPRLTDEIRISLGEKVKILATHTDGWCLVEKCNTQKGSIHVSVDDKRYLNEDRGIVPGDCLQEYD

T11: Hof1, Q05080
T11 sequence (Q05080 590-669, looked up): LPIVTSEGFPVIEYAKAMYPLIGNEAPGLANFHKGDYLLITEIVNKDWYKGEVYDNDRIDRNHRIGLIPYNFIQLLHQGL

T12: Hse1, P38753
T12 sequence (P38753 208-285, looked up): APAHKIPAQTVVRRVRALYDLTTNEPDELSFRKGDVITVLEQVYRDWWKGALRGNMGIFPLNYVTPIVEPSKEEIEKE

T13: Lsb1, P53281
T13 sequence (P53281 45-122, looked up): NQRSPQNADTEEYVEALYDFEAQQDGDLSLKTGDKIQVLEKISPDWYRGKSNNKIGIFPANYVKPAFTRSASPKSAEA

T14: Lsb3, P43603
T14 sequence (P43603 385-451, looked up): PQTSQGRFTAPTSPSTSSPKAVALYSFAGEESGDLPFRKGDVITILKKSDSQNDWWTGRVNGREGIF

T15: Lsb4, P32793
T15 sequence (P32793 402-468, looked up): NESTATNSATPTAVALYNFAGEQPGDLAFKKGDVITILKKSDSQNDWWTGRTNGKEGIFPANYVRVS

T16: Myo5, Q04439
T16 sequence (Q04439 1072-1160, looked up): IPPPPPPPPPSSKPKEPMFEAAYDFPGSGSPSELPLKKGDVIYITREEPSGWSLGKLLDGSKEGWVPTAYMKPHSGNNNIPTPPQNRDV

T17: Nbp2, Q12163
T17 sequence (Q12163 103-180, looked up): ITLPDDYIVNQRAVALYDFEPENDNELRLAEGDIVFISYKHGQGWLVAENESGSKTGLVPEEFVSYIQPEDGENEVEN

T18: Pex13, P80667
T18 sequence (P80667 295-386, looked up): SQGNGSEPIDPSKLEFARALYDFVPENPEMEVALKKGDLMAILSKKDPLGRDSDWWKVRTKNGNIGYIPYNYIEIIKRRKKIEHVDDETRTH

T19: Pin3, Q06449
T19 sequence (Q06449 53-122, looked up): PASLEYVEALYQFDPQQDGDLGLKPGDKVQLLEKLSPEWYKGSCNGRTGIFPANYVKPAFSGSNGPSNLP

T20: Sla1-2, P32790
T20 sequence (P32790 60-140, looked up): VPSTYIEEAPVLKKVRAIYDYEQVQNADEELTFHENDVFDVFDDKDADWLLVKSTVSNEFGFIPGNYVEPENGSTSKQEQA

T21: Sla1-3, P32790
T21 sequence (P32790 344-424, looked up): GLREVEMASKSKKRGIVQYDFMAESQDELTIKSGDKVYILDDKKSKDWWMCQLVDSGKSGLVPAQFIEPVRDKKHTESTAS


What was measured:
Experiment in all cases: SPOT array
Abp1, P15891 = biological target: T1, Abp1, P15891; conditions: median of control spots 935
Bbc1, P47068 = biological target: T2, Bbc1, P47068; conditions: median of control spots 796
Bem1-1, P29366 = conditions: median of control spots 4282
Bem1-2, P29366 = conditions: median of control spots 4347
Boi1, P38041 = biological target: T3, Boi1, P38041; conditions: median of control spots 1162
Boi2, P39969 = biological target: T4, Boi2, P39969; conditions: median of control spots 1161
Bud14, P27637 = biological target: T5, Bud14, P27637; conditions: median of control spots 956
Bzz1-1, P38822 = biological target: T6, Bzz1-1, P38822; conditions: median of control spots 4446
Bzz1-2, P38822 = biological target: T7, Bzz1-2, P38822; conditions: median of control spots 4538
Cdc25, P04821 = biological target: T8, Cdc25, P04821; conditions: median of control spots 969
Cyk3, Q07533 = biological target: T9, Cyk3, Q07533; conditions: median of control spots 1451
Fus1, P11710 = biological target: T10, Fus1, P11710; conditions: median of control spots 1200
GST = conditions: median of control spots 978
Hof1, Q05080 = biological target: T11, Hof1, Q05080; conditions: median of control spots 4086
Hse1, P38753 = biological target: T12, Hse1, P38753; conditions: median of control spots 1727
Lsb1, P53281 = biological target: T13, Lsb1, P53281; conditions: median of control spots 388
Lsb3, P43603 = biological target: T14, Lsb3, P43603; conditions: median of control spots 406
Lsb4, P32793 = biological target: T15, Lsb4, P32793; conditions: median of control spots 397
Myo3, P36006 = conditions: median of control spots 468
Myo5, Q04439 = biological target: T16, Myo5, Q04439; conditions: median of control spots 471
Nbp2, Q12163 = biological target: T17, Nbp2, Q12163; conditions: median of control spots 357
Pex13, P80667 = biological target: T18, Pex13, P80667; conditions: median of control spots 1341
Pin3, Q06449 = biological target: T19, Pin3, Q06449; conditions: median of control spots 2171
Rvs167, P39743 = conditions: median of control spots 2707
Sho1, P40073 = conditions: median of control spots 1148
Sla1-2, P32790 = biological target: T20, Sla1-2, P32790; conditions: median of control spots 712
Sla1-3, P32790 = biological target: T21, Sla1-3, P32790; conditions: median of control spots 5475

Sequence of Bem1-2, P29366 (P29366 139-227): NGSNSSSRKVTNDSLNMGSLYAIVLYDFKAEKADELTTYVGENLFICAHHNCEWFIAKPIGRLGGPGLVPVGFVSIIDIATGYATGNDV
Sequence of Bem1-1, P29366 (P29366 55-141): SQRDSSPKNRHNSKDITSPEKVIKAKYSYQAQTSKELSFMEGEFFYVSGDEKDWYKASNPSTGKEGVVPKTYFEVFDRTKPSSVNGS
Sequence of Rvs167, P39743 (P39743 419-482): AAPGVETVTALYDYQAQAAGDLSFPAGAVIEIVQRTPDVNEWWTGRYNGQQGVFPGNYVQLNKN
Sequence of Sho1, P40073 (P40073 287-367): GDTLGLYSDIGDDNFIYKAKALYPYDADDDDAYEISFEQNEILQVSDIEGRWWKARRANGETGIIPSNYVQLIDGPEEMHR

Binder | SPOT intensity (Abp1, P15891) | SPOT intensity (Bbc1, P47068) | SPOT intensity (Bem1-1, P29366) | SPOT intensity (Bem1-2, P29366) | SPOT intensity (Boi1, P38041) | SPOT intensity (Boi2, P39969) | SPOT intensity (Bud14, P27637) | SPOT intensity (Bzz1-1, P38822) | SPOT intensity (Bzz1-2, P38822) | SPOT intensity (Cdc25, P04821) | SPOT intensity (Cyk3, Q07533) | SPOT intensity (Fus1, P11710) | SPOT intensity (GST) | SPOT intensity (Hof1, Q05080) | SPOT intensity (Hse1, P38753) | SPOT intensity (Lsb1, P53281) | SPOT intensity (Lsb3, P43603) | SPOT intensity (Lsb4, P32793) | SPOT intensity (Myo3, P36006) | SPOT intensity (Myo5, Q04439) | other results
NIKVLLNPKLGKPVK | 93 | 111 | 2 | 3 | 5 | 0 | 27 | 2 | 6 | 96 | 5 | 2 | 0 | 13 | 20 | 1 | 0 | 1 | 6 | 0 | SPOT intensity (Nbp2, Q12163): 2; SPOT intensity (Pex13, P80667): 6; SPOT intensity (Pin3, Q06449): 2; SPOT intensity (Rvs167, P39743): 0; SPOT intensity (Sho1, P40073): 63; SPOT intensity (Sla1-2, P32790): 0; SPOT intensity (Sla1-3, P32790): 8
NVLRKILEIPLHSFS | 7 | 62 | 2 | 0 | 6 | 0 | 31 | 0 | 5 | 105 | 1 | 35 | 0 | 0 | 5 | 0 | 0 | 0 | 0 | 0 | SPOT intensity (Nbp2, Q12163): 0; SPOT intensity (Pex13, P80667): 0; SPOT intensity (Pin3, Q06449): 0; SPOT intensity (Rvs167, P39743): 0; SPOT intensity (Sho1, P40073): 6; SPOT intensity (Sla1-2, P32790): 0; SPOT intensity (Sla1-3, P32790): 0
VPVAPPPPPASLGQS | 0 | 0 | 4 | 1 | 0 | 0 | 0 | 8 | 0 | 0 | 0 | 0 | 0 | 0 | 0 | 0 | 0 | 0 | 0 | 1 | SPOT intensity (Nbp2, Q12163): 0; SPOT intensity (Pex13, P80667): 0; SPOT intensity (Pin3, Q06449): 0; SPOT intensity (Rvs167, P39743): 0; SPOT intensity (Sho1, P40073): 0; SPOT intensity (Sla1-2, P32790): 0; SPOT intensity (Sla1-3, P32790): 0
